Here are results for two variants from publication PMC10314921, “Eltrombopag directly activates BAK and induces apoptosis” (Cell Death & Disease, 2023).

Sequences and labels used below:
B1: BAK lacking its transmembrane domain (BAKΔTM), wild type [human] / itself (parent)
chain: EPALPSASEEQVAQDTEEVFRSYVFYRHQQEQEAEGVAAPADPEMVTLPLQPSSTMGQVGRQLAIIGDDINRRYDSEFQTMLQHLQPTAENAYEYFTKIATSLFESGINWGRVVALLGFGYRLALHVYQHGLTGFLGQVTRFVVDFMLHHCIARWIAQRGGWVAALNLGNG

In the experiment the parent is B1. Briefly: size exclusion chromatography (BAK oligomerization assay). Particulars: with itself; with Eltro (3.4 mM in panels a, b); CHAPS buffer, 1 h at 25 °C; Superdex75; parent: 54; read off a plot.
For EPALPSASEEQVAQDTEEVFRSYVFYRHQQEQEAEGVAAPADPEMVTLPLQPSSTMGQVGRQLAIIGDDINRRYDSEFQTMLQHLQPTAENAYEYFTKIATSLFESGINWGRVVALLGFGYRLALHVYQHGLTGFLGQVTAFVVDFMLHHCIARWIAQRGGWVAALNLGNG [chain 1 R141A], the screen value came to 42%.

For the variant EPALPSASEEQVAQDTEEVFRSYVFYRHQQEQEAEGVAAPADPEMVTLPLQPSSTMGQVGRQLAIIGDDINRRYDSEFQTMLQHLQPTAENAYEYFTKIATSLFESGINWGRVVALLGFGYRLALHVYQHGLTGFLGQVTEFVVDFMLHHCIARWIAQRGGWVAALNLGNG [chain 1 R141E], the screen value was found to be 39%.
